Assay results taken from the supplement of paper PMC10567573.
± gives the standard deviation.

Experiment: protein stability index of a GFP-peptide fusion (GPS, HEK-293T) (PSI 1-6); higher = more stable
[1] = treatment: DMSO, c terminus: a fixed tail appended
[2] = treatment: MLN4924 1 uM, 8 h, c terminus: a fixed tail appended
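Also: 24-mer peptide tiles fused after GFP, lentivirally expressed, FACS-sorted into six equal bins by GFP/DsRed ratio, decoded by Illumina sequencing, PSI is the read-weighted mean bin number.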

| Sequence | protein stability index [1] | protein stability index [2] | protein stability index (treatment: DMSO, c terminus: native) | protein stability index (treatment: MLN4924 1 uM, 8 h, c terminus: native) |
| --- | --- | --- | --- | --- |
| MAESWLRLSGAGPAEEAGPEGGLE [FOXJ1] | 4.67 ± 0.17 | 5.01 ± 0.22 |  |  |
| HVIGEDAACIAYIRLTQYIDGQGR [CAMK2B] | 2.15 ± 0.21 | 2.08 ± 0.2 |  |  |
| AVNRARRPLARPIKRGDILPPEKG [RHOBTB1] | 3.66 ± 0.23 | 3.77 ± 0.33 |  |  |
| RLAQPSSPEVLTPQLSPGSGTPQA [RTN2] | 5.12 ± 0.12 | 4.96 ± 0.2 |  |  |
| LLYDDLYDDDIDDEDEEEEDADCY [UBE2R2] | 4.26 ± 0.18 | 4.41 ± 0.27 |  |  |
| NDRGDHYHWKDLNRGINITIYGKT [EFHC1] | 2.5 ± 0.17 | 2.39 ± 0.54 |  |  |
| LGRSIVSSPQGKSGPEAARAGGWV [PKD2L1] | 3.45 ± 0.2 | 3.83 ± 0.36 |  |  |
| VLSCEAATQTERRLDLAAVTLRRG [FAM189A2] | 4.25 ± 0.19 | 4.28 ± 0.34 |  |  |
| ALEEPEKMGLQERSETFLEVWGNA [DNAAF3] | 4.35 ± 0.22 | 4.32 ± 0.42 |  |  |
| HKTHQAPASASSLPGTGAQLPPQP [DYRK1B] | 4.55 ± 0.43 | 4.97 ± 0.22 |  |  |
| SFEHRVRGVRRTASTPTPDDKLFQ [CPN1] | 4.3 ± 0.31 | 4.37 ± 0.3 |  |  |
| PPPSAPASEYCPGKLSWGTMARAL [WDR88] | 3.02 ± 0.24 | 2.97 ± 0.4 |  |  |
| QKLIVNLKPEKSYSFVLTNRGNSA [PTPRD] | 2.58 ± 0.36 | 2.58 ± 0.13 |  |  |
| LLADLKKCGDLECEALINRVSAMR [MIA2] | 2.53 ± 0.23 | 2.55 ± 0.32 |  |  |
| TATDGGSPPLSTEAHFMLQVADIN [PCDHGA10] | 4.18 ± 0.089 | 4.19 ± 0.16 |  |  |
| ANSSSEAPFPNVSTSLLTSAGNRT [ADAMTSL2] | 4.52 ± 0.36 | 4.49 ± 0.29 |  |  |
| LKSSILIAMAVYTYLRLIVDHHGT [INTS3] | 3.51 ± 0.21 | 3.11 ± 0.27 |  |  |
| RVRKEAMMGLAQIYKKYALQSAAG [PDS5B] | 2.2 ± 0.37 | 2.14 ± 0.34 |  |  |
| SCSLVLEHQPDNIKALFRKGKVLA [FKBP8] | 2.76 ± 0.15 | 2.68 ± 0.26 |  |  |
| QNLCKGLSQPTTNLVAGCLQLNAR [NEUROD6] | 2.97 ± 0.2 | 3.15 ± 0.23 |  |  |
| TAPRQEKHERTHEIIPINVNNNYE [SPRY1] | 4.68 ± 0.15 | 4.61 ± 0.38 |  |  |
| TLLLELEQDSGVQVEGLTVQYLGQ [ADAMTS4] | 2.87 ± 0.72 | 3.23 ± 0.38 |  |  |

| Sequence | protein stability index [1] | protein stability index [2] | protein stability index (treatment: DMSO, c terminus: native) | protein stability index (treatment: MLN4924 1 uM, 8 h, c terminus: native) |
| --- | --- | --- | --- | --- |
| TVLENEDDMLLFDEQEKGIVTKFY [FAN1] | 3.65 ± 0.12 | 3.72 ± 0.26 |  |  |
| NFFRMFDRNTKRDVTLEASRESSK [PPP2R2C] | 3.74 ± 0.32 | 3.73 ± 0.26 |  |  |
| KDPYGKPVDLWACGVILYILLVGY [CAMK2A] | 3.16 ± 0.97 | 3.07 ± 0.32 |  |  |
| HGRHIDCPATWGPSVEQAADSLDF [FOXJ1] | 4.31 ± 0.22 | 4.58 ± 0.11 |  |  |
| VLVLIFNAAKTCPTMPALFSDHTF [INTS4] | 3.16 ± 0.42 | 3.16 ± 0.48 |  |  |
| VELLHNTSYTRQACLVSCFQQLMV [SCNN1D] | 2.39 ± 0.78 | 2.5 ± 0.94 |  |  |
| TVSIMEPGETRRNSYPRADTGLFS [TRIM29] | 3.81 ± 0.2 | 3.64 ± 0.37 |  |  |
| SVSREARQTVPPLTVRLHTQSVSE [PWWP2B] | 4.29 ± 0.23 | 4.42 ± 0.28 |  |  |
| FSHITSARKARKYEIPHFRLKKVE [PHTF1] | 2.53 ± 0.47 | 2.82 ± 0.4 |  |  |
| DNLRKVVPCYSKTQKLSKIETLRL [NEUROD6] | 2.81 ± 0.17 | 2.8 ± 0.32 |  |  |
| AASTAAALENLQVEASCSVCLEYL [TRIM39] | 2.74 ± 0.37 | 2.81 ± 0.48 |  |  |
| AYEIMQTLHPDASANFHSLDDIYY [FUT8] | 2.85 ± 0.25 | 2.93 ± 0.37 |  |  |
| LTGTARYMSINTHLGKEQSRRDDL [CSNK1G1] | 3.9 ± 0.31 | 4.02 ± 0.46 |  |  |
| SFLKQKEQLEAEAQALRQELERQR [PBXIP1] | 4.43 ± 0.39 | 4.52 ± 0.088 |  |  |
| EGEIATYRHLLEGEDCKLPPQPCA [KRT36] | 4.6 ± 0.26 | 4.26 ± 0.24 |  |  |
| GKRMEFTSSCPNVSERSFDNVRSL [CRYBA1] | 4.12 ± 0.3 | 4.17 ± 0.28 |  |  |
| FSVSSTSRRIYRCRNCINLQNEAQ [IQUB] | 2.02 ± 0.19 | 2.34 ± 0.34 |  |  |
| QLLARRMQVDKKRVYLATDDPSLL [FUT8] | 2.61 ± 0.23 | 2.92 ± 0.27 |  |  |
| PGRRGDPDTAPPSERPLEDLRLRL [RTN2] | 4.43 ± 0.2 | 4.63 ± 0.21 |  |  |
| PNQAMVVAAAGDACPPQHVPPKDS [TBC1D10A] | 5.5 ± 0.14 | 5.37 ± 0.12 |  |  |
| TPETRAKFTQDNLCRAQRERLASA [TEKT4] | 4.17 ± 0.23 | 4.35 ± 0.35 |  |  |
| NIQANNCFSTGLSRRVLLTNVVTG [DCAF4] | 2.54 ± 0.26 | 2.63 ± 0.2 |  |  |

| Sequence | protein stability index [1] | protein stability index [2] | protein stability index (treatment: DMSO, c terminus: native) | protein stability index (treatment: MLN4924 1 uM, 8 h, c terminus: native) |
| --- | --- | --- | --- | --- |
| ERLCMGVDCTEIFGGNPRFLSLHR [ZNF263] | 2.54 ± 0.24 | 2.83 ± 0.13 |  |  |
| EAVPARGEPQQDCCVKTELLGEET [EHMT1] | 5.52 ± 0.27 | 5.65 ± 0.26 |  |  |
| GVGGKRSSKSDADSGFLGLRPTSV [NOP53] | 4.16 ± 0.44 | 4.03 ± 0.27 |  |  |
| GKVAVGQDDLTVVLNEEGICTQKC [VPS39] | 4.91 ± 0.22 | 4.79 ± 0.28 |  |  |
| DIKRGIPNYEFKLGKITFIRNSRP [UFD1] | 2.27 ± 0.17 | 2.34 ± 0.21 |  |  |
| ISQYEDDLPPPPADPVLDLPLPPP [APBB1IP] | 4.93 ± 0.18 | 4.913 ± 0.048 |  |  |
| AEGHKASFCLEDTECEGDIQKNYE [LOXL2] | 5.47 ± 0.4 | 5.33 ± 0.33 |  |  |
| AIRPENRAPGAGLGQDRQVPLWGQ [EMD] | 3.5 ± 0.21 | 3.45 ± 0.18 |  |  |
| LSAANVCLDPIIYFFLCQPFREIL [P2RY14] | 3.28 ± 0.74 | 2.58 ± 0.77 |  |  |
| SPLGALQHGFFRRTADEATNTGPA [DYRK1B] | 4.38 ± 0.16 | 4.57 ± 0.053 |  |  |
| ARICRLLKHPNIVRLHDSISEEGH [CAMK2A] | 2.85 ± 0.17 | 2.84 ± 0.33 |  |  |
| MSNKDRHIDSSCSSFIKTEPSSPA [ESRRG] | 4.33 ± 0.18 | 4.33 ± 0.17 |  |  |
| IPAVGSSLSEALDLIESDPDAWCD [MYBL2] | 4.47 ± 0.58 | 4.58 ± 0.23 |  |  |
| MSEGKPPDKKKRPRRSLSISKNKK [FAN1] | 5.08 ± 0.17 | 5.07 ± 0.21 |  |  |
| PGIDRPGMLCSFRIPGAWSCAWSL [DCAF4] | 3.32 ± 0.45 | 2.96 ± 0.61 |  |  |
| MEIATYRKLLESEECRMSGEFPSP [KRT71] | 3.91 ± 0.53 | 4.07 ± 0.36 |  |  |
| TSCSLELIGDLIGHSSSVEMFLYF [WDR41] | 3.13 ± 0.88 | 2.4 ± 0.74 |  |  |
| LEELTKLQNNCTSSITRQKKRLQE [TMEM120A] | 4.81 ± 0.3 | 4.76 ± 0.31 |  |  |
| GVIDLFGDAFGSSASEPQPASQAA [SNAP91] | 3.98 ± 0.14 | 4.11 ± 0.17 |  |  |
| MNNAQRIEKWVILEKDFSIYGGEL [ACSBG2] | 2.2 ± 0.12 | 2.28 ± 0.57 |  |  |
| LPAQPNRKPGMSSTARRSRAASSQ [CHMP4C] | 4.88 ± 0.16 | 4.87 ± 0.16 |  |  |
| SVFLLTLSIAFICCAQVKVSHLL [PHTF1] |  |  | 3.3 ± 0.35 | 3.23 ± 0.53 |

| Sequence | protein stability index [1] | protein stability index [2] | protein stability index (treatment: DMSO, c terminus: native) | protein stability index (treatment: MLN4924 1 uM, 8 h, c terminus: native) |
| --- | --- | --- | --- | --- |
| LSSVDMRMTSSPSSIPRRDDFFRH [RAD54B] | 3.21 ± 0.28 | 3.38 ± 0.34 |  |  |
| REGDCAPEEKIWEELSVLEVFEGR [MAGEA3] | 5.08 ± 0.22 | 5.14 ± 0.11 |  |  |
| VDSFETQRNGLVFIYDMCGSNYAN [PTPN9] | 2.23 ± 0.24 | 2.05 ± 0.28 |  |  |
| QVENWSAFAPDFKELDENVEYEER [RBBP5] | 5.05 ± 0.36 | 5.15 ± 0.48 |  |  |
| DSQVSEEVKTRHSEKSQREDEEEE [CHGB] | 5.75 ± 0.099 | 5.49 ± 0.21 |  |  |
| DRISTTFRLTTLLMSGCSSELKNR [PLK2] | 2.19 ± 0.46 | 2.43 ± 0.18 |  |  |
| TPLQSRTSIVQAAAGGVPGGGSNN [PDLIM7] | 4.71 ± 0.2 | 5.03 ± 0.24 |  |  |
| KKHYRLQFYMFGWTHVTLLIVVTQ [CDS2] | 2.89 ± 0.55 | 2.58 ± 0.71 |  |  |
| ICLEMFTKPVVILPCQHNLCRKCA [TRIM63] | 2.2 ± 0.054 | 2.41 ± 0.13 |  |  |
| LPPPSAPSLQPSRKLSPTEPKNYG [SCAMP3] | 4.79 ± 0.16 | 4.86 ± 0.24 |  |  |
| IVAIIPYFITLGTEIAEQEGNQKG [KCNA1] | 2.87 ± 0.71 | 2.55 ± 0.48 |  |  |
| FMSPCDKFRAKGRKPCKLMLQVVK [MCOLN1] | 2.26 ± 0.26 | 2.38 ± 0.24 |  |  |
| QCMQPNNIMGIENICELAARMLFS [NR2F2] | 2.45 ± 0.68 | 2.49 ± 0.36 |  |  |
| ENYDIIKTYHYLYLAMLERFQDGD [FEM1B] | 2.37 ± 0.56 | 2.52 ± 0.54 |  |  |
| KQSFLDGGKGHHLPSENLGKEPLD [TOR1AIP2] | 5.13 ± 0.11 | 5.01 ± 0.21 |  |  |
| CPGKGAWSIPWKWLFGATAVALGG [FKBP8] | 2.42 ± 0.3 | 2.37 ± 0.25 |  |  |
| GTRYSAPANLYVRELREVRRVPPR [PTPRD] | 4.23 ± 0.23 | 3.9 ± 0.12 |  |  |
| PHYPEYFQQPAPEYHQPQAPANVA [LOXL2] | 4.26 ± 0.2 | 4.2 ± 0.28 |  |  |
| LFHRLDEDWDSALFAELGYFTDTD [ATF6] | 2.91 ± 0.48 | 3.02 ± 0.26 |  |  |
| PAWNSKLQYILAQIGFSVGLGNIW [SLC6A17] | 2.83 ± 0.45 | 2.47 ± 0.12 |  |  |
| VDHHGTAQLQALRQKEVDFCISLL [INTS3] | 2.23 ± 0.2 | 2.35 ± 0.45 |  |  |
| VSRRAAAAAATVLLRTARVRRECW [SLC19A2] | 2.58 ± 0.17 | 2.99 ± 0.36 |  |  |
